According to patent US20250099534A1 (TECHNION RESEARCH AND DEVELOPMENT FOUNDATION, published 2025):
Starred links: 1 amine or outer side, 2 acyl side, 3 side chain; linkers in the order of their positions; H or OH if unused. Positions of bridges follow the written chain, without caps; N, C: chain ends. Primed or numbered codes have the meaning given here. No end group written: not given here. *: point of attachment. mClBz(3) = 3-(chloromethyl)benzoic acid, non-amino acid initiator forming a thioether with the C-terminal-region Cys, O=C(c1cccc(C[*:3])c1)[*:2]; mBz = 3-(methylene)benzoyl on the N-terminal amine, O=C(c1cccc(C[*:3])c1)[*:2]; Bn = c1ccc(C*)cc1; Acm = CC(=O)NC*

B1: 3 (peptide)
peptide: mBz-LCIWIGSSKNPYILCG-NH2
modifications: thioether N-15
SMILES: CC[C@H](C)[C@@H]1NC(=O)[C@H](Cc2c[nH]c3ccccc23)NC(=O)[C@H]([C@@H](C)CC)NC(=O)[C@H](CS)NC(=O)[C@H](CC(C)C)NC(=O)c2cccc(c2)CSC[C@@H](C(=O)NCC(N)=O)NC(=O)[C@H](CC(C)C)NC(=O)[C@H]([C@@H](C)CC)NC(=O)[C@H](Cc2ccc(O)cc2)NC(=O)[C@@H]2CCCN2C(=O)[C@H](CC(N)=O)NC(=O)[C@H](CCCCN)NC(=O)[C@H](CO)NC(=O)[C@H](CO)NC(=O)CNC1=O
notes: also called CP1-L2C; cyclic peptide 3
B2: 8 (peptide)
peptide: mBz-LLIWIGCSKNPYILCG-NH2
modifications: thioether N-15
SMILES: CC[C@H](C)[C@@H]1NC(=O)[C@H](Cc2c[nH]c3ccccc23)NC(=O)[C@H]([C@@H](C)CC)NC(=O)[C@H](CC(C)C)NC(=O)[C@H](CC(C)C)NC(=O)c2cccc(c2)CSC[C@@H](C(=O)NCC(N)=O)NC(=O)[C@H](CC(C)C)NC(=O)[C@H]([C@@H](C)CC)NC(=O)[C@H](Cc2ccc(O)cc2)NC(=O)[C@@H]2CCCN2C(=O)[C@H](CC(N)=O)NC(=O)[C@H](CCCCN)NC(=O)[C@H](CO)NC(=O)[C@H](CS)NC(=O)CNC1=O
notes: also called CP1-S7C; cyclic peptide 8
B3: 10 (peptide)
peptide: mBz-LLIWIGSSKCPYILCG-NH2
modifications: thioether N-15
SMILES: CC[C@H](C)[C@@H]1NC(=O)[C@H](Cc2c[nH]c3ccccc23)NC(=O)[C@H]([C@@H](C)CC)NC(=O)[C@H](CC(C)C)NC(=O)[C@H](CC(C)C)NC(=O)c2cccc(c2)CSC[C@@H](C(=O)NCC(N)=O)NC(=O)[C@H](CC(C)C)NC(=O)[C@H]([C@@H](C)CC)NC(=O)[C@H](Cc2ccc(O)cc2)NC(=O)[C@@H]2CCCN2C(=O)[C@H](CS)NC(=O)[C@H](CCCCN)NC(=O)[C@H](CO)NC(=O)[C@H](CO)NC(=O)CNC1=O
notes: also called CP1-N10C; cyclic peptide 10
B4: 11 (peptide)
peptide: mBz-LLIWIGSSKNCYILCG-NH2
modifications: thioether N-15
SMILES: CC[C@H](C)[C@@H]1NC(=O)[C@H](Cc2c[nH]c3ccccc23)NC(=O)[C@H]([C@@H](C)CC)NC(=O)[C@H](CC(C)C)NC(=O)[C@H](CC(C)C)NC(=O)c2cccc(c2)CSC[C@@H](C(=O)NCC(N)=O)NC(=O)[C@H](CC(C)C)NC(=O)[C@H]([C@@H](C)CC)NC(=O)[C@H](Cc2ccc(O)cc2)NC(=O)[C@H](CS)NC(=O)[C@H](CC(N)=O)NC(=O)[C@H](CCCCN)NC(=O)[C@H](CO)NC(=O)[C@H](CO)NC(=O)CNC1=O
notes: also called CP1-P11C; cyclic peptide 11
B5: 5 (peptide)
peptide: mBz-LLICIGSSKNPYILCG-NH2
modifications: thioether N-15
SMILES: CC[C@H](C)[C@@H]1NC(=O)[C@H](CS)NC(=O)[C@H]([C@@H](C)CC)NC(=O)[C@H](CC(C)C)NC(=O)[C@H](CC(C)C)NC(=O)c2cccc(c2)CSC[C@@H](C(=O)NCC(N)=O)NC(=O)[C@H](CC(C)C)NC(=O)[C@H]([C@@H](C)CC)NC(=O)[C@H](Cc2ccc(O)cc2)NC(=O)[C@@H]2CCCN2C(=O)[C@H](CC(N)=O)NC(=O)[C@H](CCCCN)NC(=O)[C@H](CO)NC(=O)[C@H](CO)NC(=O)CNC1=O
notes: also called CP1-W4C; cyclic peptide 5
B6: 4 (peptide)
peptide: mBz-LLCWIGSSKNPYILCG-NH2
modifications: thioether N-15
SMILES: CC[C@H](C)[C@@H]1NC(=O)[C@H](Cc2c[nH]c3ccccc23)NC(=O)[C@H](CS)NC(=O)[C@H](CC(C)C)NC(=O)[C@H](CC(C)C)NC(=O)c2cccc(c2)CSC[C@@H](C(=O)NCC(N)=O)NC(=O)[C@H](CC(C)C)NC(=O)[C@H]([C@@H](C)CC)NC(=O)[C@H](Cc2ccc(O)cc2)NC(=O)[C@@H]2CCCN2C(=O)[C@H](CC(N)=O)NC(=O)[C@H](CCCCN)NC(=O)[C@H](CO)NC(=O)[C@H](CO)NC(=O)CNC1=O
notes: also called CP1-I3C; cyclic peptide 4
B7: cyclic peptide 18, CP1-L1C-CH2C10H7 (peptide)
peptide: {mClBz(3)}-C(CH2C10H7)LIWIGSSKNPYILCG
modifications: bridge N-15; not fully specified (C-terminus, bridges)
B8: cyclic peptide 15, CP1-L1C-CH3 (peptide)
peptide: {mClBz(3)}-C(CH3)LIWIGSSKNPYILCG
modifications: bridge N-15; not fully specified (C-terminus, bridges)
B9: 13 (peptide)
peptide: mBz-LLIWIGSSKNPYCLCG-NH2
modifications: thioether N-15
SMILES: CC[C@H](C)[C@@H]1NC(=O)[C@H](Cc2c[nH]c3ccccc23)NC(=O)[C@H]([C@@H](C)CC)NC(=O)[C@H](CC(C)C)NC(=O)[C@H](CC(C)C)NC(=O)c2cccc(c2)CSC[C@@H](C(=O)NCC(N)=O)NC(=O)[C@H](CC(C)C)NC(=O)[C@H](CS)NC(=O)[C@H](Cc2ccc(O)cc2)NC(=O)[C@@H]2CCCN2C(=O)[C@H](CC(N)=O)NC(=O)[C@H](CCCCN)NC(=O)[C@H](CO)NC(=O)[C@H](CO)NC(=O)CNC1=O
notes: also called CP1-I13C; cyclic peptide 13
B10: 12 (peptide)
peptide: mBz-LLIWIGSSKNPCILCG-NH2
modifications: thioether N-15
SMILES: CC[C@H](C)[C@@H]1NC(=O)[C@H](Cc2c[nH]c3ccccc23)NC(=O)[C@H]([C@@H](C)CC)NC(=O)[C@H](CC(C)C)NC(=O)[C@H](CC(C)C)NC(=O)c2cccc(c2)CSC[C@@H](C(=O)NCC(N)=O)NC(=O)[C@H](CC(C)C)NC(=O)[C@H]([C@@H](C)CC)NC(=O)[C@H](CS)NC(=O)[C@@H]2CCCN2C(=O)[C@H](CC(N)=O)NC(=O)[C@H](CCCCN)NC(=O)[C@H](CO)NC(=O)[C@H](CO)NC(=O)CNC1=O
notes: also called CP1-Y12C; cyclic peptide 12
B11: 6 (peptide)
peptide: mBz-LLIWCGSSKNPYILCG-NH2
modifications: thioether N-15
SMILES: CC[C@H](C)[C@@H]1NC(=O)[C@H](CC(C)C)NC(=O)[C@H](CC(C)C)NC(=O)c2cccc(c2)CSC[C@@H](C(=O)NCC(N)=O)NC(=O)[C@H](CC(C)C)NC(=O)[C@H]([C@@H](C)CC)NC(=O)[C@H](Cc2ccc(O)cc2)NC(=O)[C@@H]2CCCN2C(=O)[C@H](CC(N)=O)NC(=O)[C@H](CCCCN)NC(=O)[C@H](CO)NC(=O)[C@H](CO)NC(=O)CNC(=O)[C@H](CS)NC(=O)[C@H](Cc2c[nH]c3ccccc23)NC1=O
notes: also called CP1-I5C; cyclic peptide 6
B12: cyclic peptide 17, CP1-L1C-CH2CONH2 (peptide)
peptide: {mClBz(3)}-C(CH2CONH2)LIWIGSSKNPYILCG
modifications: bridge N-15; not fully specified (C-terminus, bridges)
B13: 9 (peptide)
peptide: mBz-LLIWIGSCKNPYILCG-NH2
modifications: thioether N-15
SMILES: CC[C@H](C)[C@@H]1NC(=O)[C@H](Cc2c[nH]c3ccccc23)NC(=O)[C@H]([C@@H](C)CC)NC(=O)[C@H](CC(C)C)NC(=O)[C@H](CC(C)C)NC(=O)c2cccc(c2)CSC[C@@H](C(=O)NCC(N)=O)NC(=O)[C@H](CC(C)C)NC(=O)[C@H]([C@@H](C)CC)NC(=O)[C@H](Cc2ccc(O)cc2)NC(=O)[C@@H]2CCCN2C(=O)[C@H](CC(N)=O)NC(=O)[C@H](CCCCN)NC(=O)[C@H](CS)NC(=O)[C@H](CO)NC(=O)CNC1=O
notes: also called CP1-S8C; cyclic peptide 9
B14: cyclic peptide 16, CP1-L1C-CH2C6H5 (peptide)
peptide: {mClBz(3)}-C(Bn)LIWIGSSKNPYILCG
modifications: bridge N-15; not fully specified (C-terminus, bridges)
B15: 7 (peptide)
peptide: mBz-LLIWICSSKNPYILCG-NH2
modifications: thioether N-15
SMILES: CC[C@H](C)[C@@H]1NC(=O)[C@H](Cc2c[nH]c3ccccc23)NC(=O)[C@H]([C@@H](C)CC)NC(=O)[C@H](CC(C)C)NC(=O)[C@H](CC(C)C)NC(=O)c2cccc(c2)CSC[C@@H](C(=O)NCC(N)=O)NC(=O)[C@H](CC(C)C)NC(=O)[C@H]([C@@H](C)CC)NC(=O)[C@H](Cc2ccc(O)cc2)NC(=O)[C@@H]2CCCN2C(=O)[C@H](CC(N)=O)NC(=O)[C@H](CCCCN)NC(=O)[C@H](CO)NC(=O)[C@H](CO)NC(=O)[C@H](CS)NC1=O
notes: also called CP1-G6C; cyclic peptide 7
B16: 14 (peptide)
peptide: mBz-C(Acm)LIWIGSSKNPYILCG-NH2
modifications: thioether N-15
SMILES: CC[C@H](C)[C@@H]1NC(=O)[C@H](Cc2c[nH]c3ccccc23)NC(=O)[C@H]([C@@H](C)CC)NC(=O)[C@H](CC(C)C)NC(=O)[C@H](CSCNC(C)=O)NC(=O)c2cccc(c2)CSC[C@@H](C(=O)NCC(N)=O)NC(=O)[C@H](CC(C)C)NC(=O)[C@H]([C@@H](C)CC)NC(=O)[C@H](Cc2ccc(O)cc2)NC(=O)[C@@H]2CCCN2C(=O)[C@H](CC(N)=O)NC(=O)[C@H](CCCCN)NC(=O)[C@H](CO)NC(=O)[C@H](CO)NC(=O)CNC1=O
notes: Acm-protected precursor of cyclic peptide 2; also called CP1-L1C-Acm; cyclic peptide 14

These binders were tested against T1, biotinylated-Lys63 linked Di-Ub (UniProt P0CG47 1-76, isopeptide bond between the C-terminal Gly of the distal Ub and Lys63 of the proximal Ub; biotin tag at the N-terminus of the distal Ub) (assay: fluorescence-based competitive assay: unlabeled peptide, 5.0 molar equiv., pre-bound to biotinylated Lys63-linked Di-Ub on a streptavidin plate, then competed with CP1-FITC (1 equiv.); signal change relative to 1 (CP1), Y=[1-(a/b)]x100).
T1 construct: mature; Immobilised on streptavidin plates or on the SPR CAPture chip; also called K63-linked Di-Ub; biotin-Lys63 linked Di-Ub
Experimental: Streptavidin-coated microplate (96 well plate) was washed with HEPES buffer (50 Mm HEPES, 150 Mm NaCl, pH 7.30) and then in each well incubated 1 μg of biotinylated-Lys63-linked Di-Ub in 100 μl of the same buffer at RT. for 30 min. Additional wells were kept without biotinylated-Lys63-Di-Ub for blank subtraction. After the washing step, peptide standard (CP1) and unlabeled peptides were incubated (5.0 molar equivalent relative to biotin-Lys63-linked Di-Ub) at RT for 30 minutes for saturation binding to the target. Then 1 molar equivalent of FITC labeled peptide-standard (CP1-FITC) relative to biotinylated-Lys63-linked Di-Ub was incubated to compete with unlabeled peptides at RT for 30 min. After releasing bounded peptides on treatment with 6 M Guanidinium chloride (Gnd·HCl), the fluorescence values were measured (λex=480 nm and λem=525 nm). These values were normalized and then calculated the relative change in binding with the following formula:
Y=[1−(a/b)]×100 [0289] Where Y=Signal change relative to the standard (CP1) (in terms of %). [0290] a=Measured signal value of each peptide candidate (in Relative Fluorescence Units). [0291] b=Measured signal value of standard peptide (CP1). The dissociation constant (KD) of fluorescein-labeled peptide (CP1-FITC) was calculated in accordance with the literature procedure (Vamisetti G B et al., 2021).

binding result | Binder
binds | B1
binds | B2
binds | B3
binds | B4
binds | B5
binds | B6
binds | B7
binds | B8
binds | B9
binds | B10
binds | B11
binds | B12
binds | B13
binds | B14
binds | B15
binds | B16
